Data reported in paper PMC5240640.

How the values were obtained:
[1] = target: His-tagged FcγRIIIa (R&D Systems, cat no. 4325-FC) (UniProt P08637)
[2] = target: His-tagged FcγRIIIa (R&D Systems, cat no. 4325-FC) (UniProt P08637); remark: listed apart in the source
[3] = target: His-tagged FcγRI (R&D Systems, cat no. 1257-FC) (UniProt P12314); experiment: AlphaScreen or HTRF; competitive: biotinylated human IgG1 (200 ng/mL) on streptavidin donor beads, His-tagged FcγR (200 ng/mL) on nickel chelate acceptor beads, unlabeled competitor antibody in serial dilutions; 1xPBS, 0.05% BSA, 0.01% Tween 20, pH 7.2; RT 1 h; IC50 interpolated at 50% maximal activity
[4] = target: His-tagged FcγRIIIa (R&D Systems, cat no. 4325-FC) (UniProt P08637); experiment: as above
[5] = target: His-tagged FcγRIIa (R&D Systems, cat no. 1330-CD/CF) (UniProt P12318); experiment: as above

| Substance | ADCC against HCC-827 cells with donor PBMCs, EC20 (antibody concentration needed to elicit 20% lysis) [1] | ADCC against HCC-827 cells with donor PBMCs, Emax (% compared to complete lysis) [1] | ADCC against H1975 cells with donor PBMCs, EC20 (antibody concentration needed to elicit 20% lysis) [2] | ADCC against H1975 cells with donor PBMCs, Emax (% compared to complete lysis) [2] | IC50 [3] | IC50 [4] | IC50 [5] |
| --- | --- | --- | --- | --- | --- | --- | --- |
| JNJ-61186372 - LF (EGFR x c-Met bispecific antibody, low fucose) | 0.0376 nM | 31% | 0.0015 nM | 59% | 9.2 nM | 10 nM | 946 nM |
| JNJ-61186372 - NF (EGFR x c-Met bispecific antibody, normal fucose) | 0.645 nM | 30% | 0.15 nM | 40% | 11.6 nM | 38.1 nM | 1080 nM |
| IgG1 isotype - NF (antibody) | – | – | – | – | 8.7 nM | 32.4 nM | 1270 nM |
